Assay results reported in patent publication US20220056104A1 (Janssen / Centocor, published 2022).

T1: Recombinant DR3-Fc (R&D Systems, cat. #943-D3) (UniProt Q93038 25-199, limits assumed)
T1 construct: dimeric MW~92 kDa; also called DR3 receptor; Fc-DR3; not shown: Fc part of the bought fusion
T1 sequence (looked up): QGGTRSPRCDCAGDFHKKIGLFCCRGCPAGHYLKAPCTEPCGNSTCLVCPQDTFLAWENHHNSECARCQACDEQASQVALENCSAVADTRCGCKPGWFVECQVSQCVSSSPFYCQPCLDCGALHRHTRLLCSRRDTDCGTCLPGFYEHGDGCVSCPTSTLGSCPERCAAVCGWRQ

T2: DcR3 (UniProt O95407 30-300, limits assumed)
T2 construct: the construct is not described; also called decoy receptor DcR3; TNFRSF6B
T2 sequence (looked up): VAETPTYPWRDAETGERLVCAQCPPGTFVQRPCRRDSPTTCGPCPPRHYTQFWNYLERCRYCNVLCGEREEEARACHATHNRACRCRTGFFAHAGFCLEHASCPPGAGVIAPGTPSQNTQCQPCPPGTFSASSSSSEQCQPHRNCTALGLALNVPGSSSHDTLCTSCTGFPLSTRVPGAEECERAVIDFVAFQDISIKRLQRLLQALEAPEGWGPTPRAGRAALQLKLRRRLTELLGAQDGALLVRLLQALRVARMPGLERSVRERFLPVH

B1: TL1W24 (His-TEV-hTL1A 72-251 F209A) (ligand)
chain: HHHHHHENLYFQGLKGQEFAPSHQQVYAPLRADGDKPRAHLTVVRQTPTQHFKNQFPALHWEHELGLAFTKNRMNYTNKFLLIPESGDYFIYSQVTFRGMTSECSEIRQAGRPNKPDSITVVITKVTDSYPEPTQLLMGTKSVCEVGSNWAQPIYLGAMFSLQEGDKLMVNVSDISLVDYTKEDKTFFGAFLL
notes: also called TL1W24 (F209A)
B2: TL1W46 (His-TEV-TL1A T239W) (ligand)
chain: HHHHHHENLYFQGLKGQEFAPSHQQVYAPLRADGDKPRAHLTVVRQTPTQHFKNQFPALHWEHELGLAFTKNRMNYTNKFLLIPESGDYFIYSQVTFRGMTSECSEIRQAGRPNKPDSITVVITKVTDSYPEPTQLLMGTKSVCEVGSNWFQPIYLGAMFSLQEGDKLMVNVSDISLVDYWKEDKTFFGAFLL
notes: also called TL1W46 (T239W)
B3: TL1W87 (His-TEV-TL1A G124D) (ligand)
chain: HHHHHHENLYFQGLKGQEFAPSHQQVYAPLRADGDKPRAHLTVVRQTPTQHFKNQFPALHWEHELDLAFTKNRMNYTNKFLLIPESGDYFIYSQVTFRGMTSECSEIRQAGRPNKPDSITVVITKVTDSYPEPTQLLMGTKSVCEVGSNWFQPIYLGAMFSLQEGDKLMVNVSDISLVDYTKEDKTFFGAFLL
notes: also called TL1W87 (G124D)
B4: TL1W108 (His-TEV-TL1A S187A) (ligand)
chain: HHHHHHENLYFQGLKGQEFAPSHQQVYAPLRADGDKPRAHLTVVRQTPTQHFKNQFPALHWEHELGLAFTKNRMNYTNKFLLIPESGDYFIYSQVTFRGMTSECSEIRQAGRPNKPDSITVVITKVTDAYPEPTQLLMGTKSVCEVGSNWFQPIYLGAMFSLQEGDKLMVNVSDISLVDYTKEDKTFFGAFLL
notes: also called TL1W108 (S187A)
B5: TL1W27 (His-TEV-hTL1A 72-251 T239E) (ligand)
chain: HHHHHHENLYFQGLKGQEFAPSHQQVYAPLRADGDKPRAHLTVVRQTPTQHFKNQFPALHWEHELGLAFTKNRMNYTNKFLLIPESGDYFIYSQVTFRGMTSECSEIRQAGRPNKPDSITVVITKVTDSYPEPTQLLMGTKSVCEVGSNWFQPIYLGAMFSLQEGDKLMVNVSDISLVDYEKEDKTFFGAFLL
notes: also called TL1W27 (T239E)
B6: TL1W33 (E241L) (ligand)
chain: HHHHHHENLYFQGLKGQEFAPSHQQVYAPLRADGDKPRAHLTVVRQTPTQHFKNQFPALHWEHELGLAFTKNRMNYTNKFLLIPESGDYFIYSQVTFRGMTSECSEIRQAGRPNKPDSITVVITKVTDSYPEPTQLLMGTKSVCEVGSNWFQPIYLGAMFSLQEGDKLMVNVSDISLVDYTKLDKTFFGAFLL
notes: no entry of the listing holds E241L; also called E241L variant of His-TL1A
B7: TL1W83 (His-TEV-TL1A E120K) (ligand)
chain: HHHHHHENLYFQGLKGQEFAPSHQQVYAPLRADGDKPRAHLTVVRQTPTQHFKNQFPALHWKHELGLAFTKNRMNYTNKFLLIPESGDYFIYSQVTFRGMTSECSEIRQAGRPNKPDSITVVITKVTDSYPEPTQLLMGTKSVCEVGSNWFQPIYLGAMFSLQEGDKLMVNVSDISLVDYTKEDKTFFGAFLL
notes: also called TL1W83 (E120K)
B8: TL1W86 (His-TEV-TL1A G124K) (ligand)
chain: HHHHHHENLYFQGLKGQEFAPSHQQVYAPLRADGDKPRAHLTVVRQTPTQHFKNQFPALHWEHELKLAFTKNRMNYTNKFLLIPESGDYFIYSQVTFRGMTSECSEIRQAGRPNKPDSITVVITKVTDSYPEPTQLLMGTKSVCEVGSNWFQPIYLGAMFSLQEGDKLMVNVSDISLVDYTKEDKTFFGAFLL
notes: also called TL1W86 (G124K)
B9: TL1W88 (His-TEV-TL1A R156A) (ligand)
chain: HHHHHHENLYFQGLKGQEFAPSHQQVYAPLRADGDKPRAHLTVVRQTPTQHFKNQFPALHWEHELGLAFTKNRMNYTNKFLLIPESGDYFIYSQVTFAGMTSECSEIRQAGRPNKPDSITVVITKVTDSYPEPTQLLMGTKSVCEVGSNWFQPIYLGAMFSLQEGDKLMVNVSDISLVDYTKEDKTFFGAFLL
notes: also called TL1W88 (R156A)
B10: TL1W89 (His-TEV-TL1A R156Y) (ligand)
chain: HHHHHHENLYFQGLKGQEFAPSHQQVYAPLRADGDKPRAHLTVVRQTPTQHFKNQFPALHWEHELGLAFTKNRMNYTNKFLLIPESGDYFIYSQVTFYGMTSECSEIRQAGRPNKPDSITVVITKVTDSYPEPTQLLMGTKSVCEVGSNWFQPIYLGAMFSLQEGDKLMVNVSDISLVDYTKEDKTFFGAFLL
notes: also called TL1W89 (R156Y)
B11: TL1W91 (His-TEV-TL1A R156E) (ligand)
chain: HHHHHHENLYFQGLKGQEFAPSHQQVYAPLRADGDKPRAHLTVVRQTPTQHFKNQFPALHWEHELGLAFTKNRMNYTNKFLLIPESGDYFIYSQVTFEGMTSECSEIRQAGRPNKPDSITVVITKVTDSYPEPTQLLMGTKSVCEVGSNWFQPIYLGAMFSLQEGDKLMVNVSDISLVDYTKEDKTFFGAFLL
notes: also called TL1W91 (R156E)
B12: TL1W101 (His-TEV-TL1A S176N) (ligand)
chain: HHHHHHENLYFQGLKGQEFAPSHQQVYAPLRADGDKPRAHLTVVRQTPTQHFKNQFPALHWEHELGLAFTKNRMNYTNKFLLIPESGDYFIYSQVTFRGMTSECSEIRQAGRPNKPDNITVVITKVTDSYPEPTQLLMGTKSVCEVGSNWFQPIYLGAMFSLQEGDKLMVNVSDISLVDYTKEDKTFFGAFLL
notes: also called TL1W101 (S176N)
B13: TL1W128 (His-TEV-TL1A Y238S) (ligand)
chain: HHHHHHENLYFQGLKGQEFAPSHQQVYAPLRADGDKPRAHLTVVRQTPTQHFKNQFPALHWEHELGLAFTKNRMNYTNKFLLIPESGDYFIYSQVTFRGMTSECSEIRQAGRPNKPDSITVVITKVTDSYPEPTQLLMGTKSVCEVGSNWFQPIYLGAMFSLQEGDKLMVNVSDISLVDSTKEDKTFFGAFLL
notes: also called TL1W128 (Y238S)
B14: TL1W130 (His-TEV-TL1A Y238R) (ligand)
chain: HHHHHHENLYFQGLKGQEFAPSHQQVYAPLRADGDKPRAHLTVVRQTPTQHFKNQFPALHWEHELGLAFTKNRMNYTNKFLLIPESGDYFIYSQVTFRGMTSECSEIRQAGRPNKPDSITVVITKVTDSYPEPTQLLMGTKSVCEVGSNWFQPIYLGAMFSLQEGDKLMVNVSDISLVDRTKEDKTFFGAFLL
notes: also called TL1W130 (Y238R)
B15: TL1W133 (His-TEV-TL1A T239F) (ligand)
chain: HHHHHHENLYFQGLKGQEFAPSHQQVYAPLRADGDKPRAHLTVVRQTPTQHFKNQFPALHWEHELGLAFTKNRMNYTNKFLLIPESGDYFIYSQVTFRGMTSECSEIRQAGRPNKPDSITVVITKVTDSYPEPTQLLMGTKSVCEVGSNWFQPIYLGAMFSLQEGDKLMVNVSDISLVDYFKEDKTFFGAFLL
notes: also called TL1W133 (T239F)
B16: TL1W134 (His-TEV-TL1A T239K) (ligand)
chain: HHHHHHENLYFQGLKGQEFAPSHQQVYAPLRADGDKPRAHLTVVRQTPTQHFKNQFPALHWEHELGLAFTKNRMNYTNKFLLIPESGDYFIYSQVTFRGMTSECSEIRQAGRPNKPDSITVVITKVTDSYPEPTQLLMGTKSVCEVGSNWFQPIYLGAMFSLQEGDKLMVNVSDISLVDYKKEDKTFFGAFLL
notes: also called TL1W134 (T239K)
B17: TL1W135 (His-TEV-TL1A K240A) (ligand)
chain: HHHHHHENLYFQGLKGQEFAPSHQQVYAPLRADGDKPRAHLTVVRQTPTQHFKNQFPALHWEHELGLAFTKNRMNYTNKFLLIPESGDYFIYSQVTFRGMTSECSEIRQAGRPNKPDSITVVITKVTDSYPEPTQLLMGTKSVCEVGSNWFQPIYLGAMFSLQEGDKLMVNVSDISLVDYTAEDKTFFGAFLL
notes: also called TL1W135 (K240A)
B18: TL1W138 (His-TEV-TL1A K240D) (ligand)
chain: HHHHHHENLYFQGLKGQEFAPSHQQVYAPLRADGDKPRAHLTVVRQTPTQHFKNQFPALHWEHELGLAFTKNRMNYTNKFLLIPESGDYFIYSQVTFRGMTSECSEIRQAGRPNKPDSITVVITKVTDSYPEPTQLLMGTKSVCEVGSNWFQPIYLGAMFSLQEGDKLMVNVSDISLVDYTDEDKTFFGAFLL
notes: also called TL1W138 (K240D)
B19: TL1W139 (His-TEV-TL1A E241Q) (ligand)
chain: HHHHHHENLYFQGLKGQEFAPSHQQVYAPLRADGDKPRAHLTVVRQTPTQHFKNQFPALHWEHELGLAFTKNRMNYTNKFLLIPESGDYFIYSQVTFRGMTSECSEIRQAGRPNKPDSITVVITKVTDSYPEPTQLLMGTKSVCEVGSNWFQPIYLGAMFSLQEGDKLMVNVSDISLVDYTKQDKTFFGAFLL
notes: also called TL1W139 (E241Q)

Each binder was assayed against T1, Recombinant DR3-Fc (R&D Systems, cat. …) (assay: ELISA, DR3-Fc immobilized).
Method: All ELISA-based measurements were collected in triplicate, and error values report the standard error between measurements. Recombinant DR3-Fc (R&D Systems, cat. #943-D3), dimeric MW˜92 kDa, was non-specifically immobilized onto plates (Nunc maxisorp, cat. #436110) in 100 μL DR3-Fc, diluted to 10 μg/mL onto a 96-well White Maxisorp plate (Nunc, cat #436110) (O/N, 4° C.). Plates were block for 1 hour at room temperature with 250 μl/well of casein buffer and blocking buffer was removed. 50 μL of TL1A variants were diluted in StartingBlock PBS (Thermo Fisher Scientific), at 25 μg/mL, diluting 3× over each well, according to the plate map description for 20160623) per well on a 96-well White Maxisorp plate (Nunc, cat #: 436110) (overnight at 4° C.).
Plates were washed three times with TBST. 100 μl/well polyclonal rabbit anti-human TL1A-biotin antibody (diluted 1:1000 in Starting Block PBS) was added and plates were incubated for 1 hour at room temperature with shaking at 150 rpm. TL1A-biotin antibody was removed and 100 μl/well streptavidin-HRP conjugate (diluted 1:10,000 in Starting Block PBS) was added to plates. Plates were incubated for 1 hour at room temperature with shaking at 150 rpm. Plates were washed three times with TBST. 100 μl/well POD Chemiluminescence substrate (Roche, cat #: 11582950001) was added immediately prior to reading plate luminescence using a Molecular Devices M5 plate reader with a delay setting of 100 ms.
Variants of TL1A were generated and tested for binding to DR3 and DcR3 by ELISA as described.
In the case of B1, the EC50 is reported as 281 nM and the “Rel EC50” value is reported as 10.7 ratio (head: nM). In the case of B2, the EC50 is reported as 284 nM and the “Rel EC50” value is reported as 10.8 ratio (head: nM). In the case of B3, the EC50 is reported as 14.8 nM and the “Rel EC50” value is reported as 0.6 ratio (head: nM). B4 was tested, and the EC50 was 39.1 nM and the “Rel EC50” value was 1.5 ratio (head: nM).

Each binder was assayed against T2, DcR3 (assay: ELISA, DcR3).
With B1 the EC50 was 30.7 nM and the “Rel EC50” value was 6.7 ratio (head: nM). For B5, the EC50 was 34.3 nM and the “Rel EC50” value was 7.5 ratio (head: nM). In the case of B6, the EC50 is reported as 5.7 nM and the “Rel EC50” value is reported as 1.2 ratio (head: nM). For B7, the EC50 was 2.2 nM and the “Rel EC50” value was 0.5 ratio (head: nM). With B8 the EC50 was 2.9 nM and the “Rel EC50” value was 0.6 ratio (head: nM). For B9, the EC50 was 13.5 nM and the “Rel EC50” value was 2.9 ratio (head: nM). For B10, the EC50 was 8 nM and the “Rel EC50” value was 1.7 ratio (head: nM). For B11, the EC50 was 8.3 nM and the “Rel EC50” value was 1.8 ratio (head: nM). With B12 the EC50 was 20.4 nM and the “Rel EC50” value was 4.4 ratio (head: nM). In the case of B13, the EC50 is reported as 10.5 nM and the “Rel EC50” value is reported as 2.3 ratio (head: nM). For B14, the EC50 was 16.9 nM and the “Rel EC50” value was 3.7 ratio (head: nM). B15 was tested, and the EC50 was 10.8 nM and the “Rel EC50” value was 2.3 ratio (head: nM). B16 was tested, and the EC50 was 21.5 nM and the “Rel EC50” value was 4.7 ratio (head: nM). B17 was tested, and the EC50 was 8.5 nM and the “Rel EC50” value was 1.9 ratio (head: nM). With B18 the EC50 was 59.5 nM and the “Rel EC50” value was 12.9 ratio (head: nM). In the case of B19, the EC50 is reported as 17.3 nM and the “Rel EC50” value is reported as 3.8 ratio (head: nM).
